In the supplement of paper PMC9732359 one finds protein stability index data, which are given here for 27 sequences.

This data set is described as follows: protein stability index of a GFP-peptide fusion (yeast GPS) (PSI 1-4); higher = more stable; sorted into four equal gates, so the index is relative within each strain. In a few lines:
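Yeast carrying a pooled library were grown to mid-log phase in leucine-free medium. Each library plasmid expresses Cherry and has a tiled 17-residue yeast protein peptide fused downstream of GFP. Cells were sorted into four equal gates by GFP/Cherry ratio, and plasmids from each gate were PCR-amplified, Illumina-sequenced and assigned to strains by barcode. Summing, across gates, the read frequency times the gate number gave each peptide's protein stability index.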

± gives the uncertainty stated by the source.

Take AILQEKILSILNRSHFA [ECM29]: the protein stability index was found to be 1.87 ± 0.05 (doa10∆), 2.15 ± 0.052 (pdr5∆), 2.27 ± 0.054 (san1∆) and 2.35 ± 0.051 (ubr1∆).
The sequence VSTLIAGFDPRDDEPKL [PRE6] returned a protein stability index (san1∆) of 3.12 ± 0.077.
In the case of ALKGPVRDKLDEYQAAV [DPB4], the protein stability index was found to be 3.31 ± 0.072 (doa10∆), 3.29 ± 0.05 (pdr5∆), 3.2 ± 0.052 (san1∆) and 3.17 ± 0.064 (ubr1∆).
In turn, EDNGIVKALRNVPGVET [RPL4A] returned a protein stability index (doa10∆) of 1.77 ± 0.16, a protein stability index (san1∆) of 2.46 ± 0.11 and a protein stability index (ubr1∆) of 2.47 ± 0.19.
LSTGRKFERARGRRRSK [RPL18A] yielded a protein stability index (ubr1∆) of 3.05 ± 0.1.
Regarding GYILEGEELAFYLRRLT [RPS8A], the protein stability index was found to be 1.26 ± 0.078 (doa10∆), 1.41 ± 0.07 (pdr5∆), 1.24 ± 0.17 (san1∆) and 1.31 ± 0.25 (ubr1∆).
The corresponding values for RGTLTKNLKHIDVTFTK [RPL9A] are 3.32 ± 0.06, 3.25 ± 0.067, 3 ± 0.077 and 2.72 ± 0.065.
In turn, GVQTAYIDYSSKRYIPS [RRP40] yielded a protein stability index (doa10∆) of 2.43 ± 0.067, a protein stability index (pdr5∆) of 2.61 ± 0.057, a protein stability index (san1∆) of 2.48 ± 0.1 and a protein stability index (ubr1∆) of 2.33 ± 0.068.
TLAYDRGHRIRREFKQY [PRP8]: the protein stability index by setting is: (doa10∆) 2.82 ± 0.08; (pdr5∆) 2.63 ± 0.058; (san1∆) 2.35 ± 0.098; (ubr1∆) 2.3 ± 0.052.
As to IALILAIQMVDPASFYL [SMC3], the protein stability index (doa10∆) stood at 1.16 ± 0.05, the protein stability index (pdr5∆) is 1.25 ± 0.055, the protein stability index (san1∆) amounted to 2.1 ± 0.12 and the protein stability index (ubr1∆) worked out at 1.98 ± 0.063.
Taken in the same sequence, the figures for KNSFQQALQMKAMDIPI [SWP82] were 1.29 ± 0.035, 1.55 ± 0.055, 1.37 ± 0.064 and 1.59 ± 0.038.
The corresponding values for RLIVDPNIADYITAKNN [PRP8] are 2.15 ± 0.076, 2.22 ± 0.066, 2.36 ± 0.26 and 2.08 ± 0.052.
The corresponding values for SILEHSGIRLIEPELFN [FAS2] are 2.67 ± 0.068, 2.99 ± 0.061, 2.76 ± 0.058 and 2.86 ± 0.039.
Turning to NTNELKEVSSFLMGIFN [MTR3], the protein stability index reads like this: (doa10∆) 2.93 ± 0.067; (pdr5∆) 3.06 ± 0.061; (san1∆) 2.92 ± 0.061; (ubr1∆) 3.1 ± 0.046.
The corresponding values for SLLLTNVIITGSTSLIE [ARP7] are 1.54 ± 0.033, 1.6 ± 0.034, 1.66 ± 0.051 and 1.39 ± 0.028.
Taken in the same sequence, the figures for SFLKEGDLLNAEVQSLF [RRP4] were 2.57 ± 0.058, 3.03 ± 0.091, 3.04 ± 0.059 and 2.8 ± 0.067.
Taken in the same sequence, the figures for NKIIPNVGLCITIYDLL [RPC25] were 1.43 ± 0.082, 1.29 ± 0.068, 1.29 ± 0.13 and 1.5 ± 0.067.
Turning to FYVPQARNVTFDSLRNF [GRR1], the protein stability index runs as follows: (doa10∆) 2.04 ± 0.08; (pdr5∆) 2.27 ± 0.075; (san1∆) 2.52 ± 0.08; (ubr1∆) 2.22 ± 0.059.
The corresponding values for DDSLNRLAQNDGLLKNV [RPS21A] are 2.77 ± 0.15, 3.04 ± 0.12, 3.16 ± 0.13 and 3.38 ± 0.18.
Taken in the same sequence, the figures for EEARRKHVSGKILGFVY [RPS22A] were 2.82 ± 0.2, 2.67 ± 0.18, 2.97 ± 0.16 and 2.9 ± 0.097.
The corresponding values for LKLLAKSHVLLATPVQF [BRR2] are 1.89 ± 0.068, 1.4 ± 0.058, 1.36 ± 0.11 and 1.44 ± 0.07.
Sequence IVPIFQLISAVLVSMGS [YJL039C/NUP192] yielded a protein stability index (pdr5∆) of 2.39 ± 0.28 and a protein stability index (ubr1∆) of 1.22 ± 0.091.
For FTTLLESKQDGLSILFL [YML103C/NUP188], the protein stability index came out at 2.53 ± 0.097 (doa10∆), 2.68 ± 0.12 (pdr5∆), 2.56 ± 0.096 (san1∆) and 3 ± 0.14 (ubr1∆).
Turning to DGFNKTFHDELNLKFKE [YML103C/NUP188], the protein stability index by setting is: (doa10∆) 2.41 ± 0.066; (pdr5∆) 2.38 ± 0.072; (san1∆) 2.69 ± 0.087; (ubr1∆) 2.65 ± 0.054.
Taken in the same sequence, the figures for FVAKLAAQIFGSYNAFE [COR1] were 1.68 ± 0.043, 1.74 ± 0.048, 1.63 ± 0.081 and 2.13 ± 0.046.
The corresponding values for HCYPRQLCQITCQILES [RRP46] are 1.8 ± 0.059, 1.9 ± 0.058, 1.72 ± 0.088 and 2 ± 0.048.
Taken in the same sequence, the figures for HATVVPPEEFSNTIDEL [SRB7] were 3.19 ± 0.071, 3.25 ± 0.09, 2.89 ± 0.1 and 3.02 ± 0.089.
